As a reminder, the kon is the second-order rate constant of association. As a reminder, the stoichiometry N is a count of units in the complex or per binding partner.

The target in series [1] is tubulin from porcine brain, polymerised into microtubules (porcine) (UniProt P02550). Description: single-molecule TIRF microscopy; single-molecule localisation at growing microtubule ends (tubulin 12 μM): 1 nM GFP-MCAK with 1 mM ATP, 10 nM EB1-GFP or 1 nM XMAP215-GFP, each alone; apparent constants.
For series [2] the target is unchanged. Kind of series: single-molecule TIRF microscopy; binding events at the growing plus-end of dynamic microtubules (tubulin 16 μM); GFP-MCAK without nucleotide (APO); apparent constants, per tubulin dimer.
Series [3] has the same target. Kind of series: single-molecule TIRF microscopy; binding events at the growing plus-end of dynamic microtubules (tubulin 16 μM); GFP-MCAK with 1 mM ADP; apparent constants, per tubulin dimer.
The target is the same in series [4]. Kind of series: single-molecule TIRF microscopy; binding events on the lattice of dynamic microtubules (tubulin 16 μM) grown from immobilised GMPCPP seeds; 10 nM GFP-MCAK (10 nM K524A, 30 nM V298S); 1 mM ATP; BRB80 + 50 mM KCl, 35°C; apparent constants, per tubulin dimer.
For series [5] the target is unchanged. Kind of series: single-molecule TIRF microscopy; single-molecule localisation at growing microtubule ends (tubulin 12 μM): 1 nM GFP-MCAK with 1 mM ATP, 10 nM EB1-GFP or 1 nM XMAP215-GFP, each alone; apparent constants. This is another data set of the same source.
Series [6] has the same target. Description: single-molecule TIRF microscopy; binding events at the growing plus-end (end region 162 nm FWHM) of dynamic microtubules (tubulin 16 μM) grown from immobilised GMPCPP seeds; 10 nM GFP-MCAK (10 nM K524A, 30 nM V298S); 1 mM ATP; BRB80 + 50 mM KCl, 2 mM GTP, 35°C; apparent constants, per tubulin dimer.
Series [7] shares this target. Description: single-molecule TIRF microscopy; binding events on the lattice of dynamic microtubules (tubulin 16 μM); GFP-MCAK with 1 mM AMPPNP.
Series [8] concerns the molecule itself. Kind of series: SEC; Superose 6 Increase 5/150 GL; BRB80 with 50 mM KCl and 1 mM ATP. In general terms: SEC sorts molecules by how far they enter the pores of the column.
Series [9] has as its target tubulin from porcine brain, polymerised into microtubules (porcine) (UniProt P02550). Kind of series: single-molecule TIRF microscopy; binding events at the minus-ends of dynamic microtubules; GFP-MCAK, 1 mM ATP; BRB80 + 50 mM KCl, 35°C; apparent constants, per tubulin dimer.
The target is the same in series [10]. Description: single-molecule TIRF microscopy; binding events at the growing plus-end of dynamic microtubules (tubulin 16 μM); GFP-MCAK with 1 mM AMPPNP; apparent constants, per tubulin dimer.

Consider “EB1-GFP (from UniProt Q15691 1-268) (natural protein)”, for which the Kd in series [1] was 722 µM.

B1: GFP-MCAK (mitotic centromere-associated kinesin, wild type) (enzyme, UniProt Q99661 1-725, looked up)
chain: MAMDSSLQARLFPGLAIKIQRSNGLIHSANVRTVNLEKSCVSVEWAEGGATKGKEIDFDDVAAINPELLQLLPLHPKDNLPLQENVTIQKQKRRSVNSKIPAPKESLRSRSTRMSTVSELRITAQENDMEVELPAAANSRKQFSVPPAPTRPSCPAVAEIPLRMVSEEMEEQVHSIRGSSSANPVNSVRRKSCLVKEVEKMKNKREEKKAQNSEMRMKRAQEYDSSFPNWEFARMIKEFRATLECHPLTMTDPIEEHRICVCVRKRPLNKQELAKKEIDVISIPSKCLLLVHEPKLKVDLTKYLENQAFCFDFAFDETASNEVVYRFTARPLVQTIFEGGKATCFAYGQTGSGKTHTMGGDLSGKAQNASKGIYAMASRDVFLLKNQPCYRKLGLEVYVTFFEIYNGKLFDLLNKKAKLRVLEDGKQQVQVVGLQEHLVNSADDVIKMIDMGSACRTSGQTFANSNSSRSHACFQIILRAKGRMHGKFSLVDLAGNERGADTSSADRQTRMEGAEINKSLLALKECIRALGQNKAHTPFRESKLTQVLRDSFIGENSRTCMIATISPGISSCEYTLNTLRYADRVKELSPHSGPSGEQLIQMETEEMEACSNGALIPGNLSKEEEELSSQMSSFNEAMTQIRELEEKAMEELKEIIQQGPDWLELSEMTEQPDYDLETFVNKAESALAQQAKHFSALRDVIKALRLAMQLEEQASRQISSKKRPQ
notes: MCAK (mitotic centromere-associated kinesin, kinesin-13); GFP-MCAK monomer printed as 110 kDa; Dimer by size-exclusion chromatography; Used with 1 mM ATP, AMPPNP, ADP or without nucleotide (APO); Purification adapted from Helenius et al., 2006; The printed residue numbers (K524, V298, T537) and the 110 kDa mass fit whole human MCAK (surmised); also called MCAK‧ATP; MCAK‧AMPPNP; source: Sf9, …
As for B1, in [2], the Kd is 1.8 µM, the RE/L (kon at the plus-end over kon on the lattice) was determined as 2 and the dwell time came out at 1.89 s. Moreover, in series [3], the Kd was 163 µM, the RE/L (kon at the plus-end over kon on the lattice) was found to be 2 and the dwell time is 0.46 s. In addition, in series [4], the Kd is 1060 µM, the dwell time was determined as 0.62 s and the kon was 2800 M⁻¹ s⁻¹. Besides, in [5], the dwell time of distally distributed molecules at the growing end is 0.8 s and the dwell time of proximally distributed molecules at the growing end came to 0.7 s. In addition, in series [6], the Kd turned out to be 69 µM; the dwell time worked out at 0.75 s; the effective dissociation constant (the microtubule end taken as one multivalent receptor, end length 160 nm) amounted to 260 nM; the kon came to 22600 M⁻¹ s⁻¹. In addition, the dwell time in [7] turned out to be 1.46 s. Also, in series [8], the “stoichiometry N” value was 2. In series [9], the Kd was 40 µM and the RE/L (kon at the end over kon on the lattice) worked out at 13. Also, in series [10], the Kd was 61 µM, the RE/L (kon at the plus-end over kon on the lattice) is 11 and the dwell time was 3.32 s.

Source of the values: paper PMC12629592, “MCAK recognizes the nucleotide-dependent feature at growing microtubule ends” (eLife, 2025).
